Reference: the DeepSol protein solubility set

Experiment: soluble on expression in E. coli; label from the status in PepcDB or PDB records
For “MLVGLDIGTSKIVAIVAEVLEDGQLNIVGMGHTPSRGLKRGMVVNIESTVQAIQRALEEAELMADCKIHEVFVGIAGSHIKSVNSHGMVAIKDREVTKMDIDRVIETARAVTIPPDH”, the “soluble on expression in E. coli” value was “not soluble”. For “GPGSMLHPYIAGFDGLTCVAGTPADTLARNPDTGTTGRGTGSGVEGVFGTSLDVAGQLAGFETLTSASLNNNFLYDGLPSSGVTLREPLLSTHLTRSPTTLSTVGEAAMQPTQNPTQTPQQDPLPDLNTLATNAFFPFPSAAGAASAEGGQQQMATANLYGASQLESIMKASAGDGKSASTAPEPAANNLLGRLTVSTLAAQSATPGTSPQSQPCPVPQFTPLGAGACSNASRSSAPSYSSASVPIGCGPQMCSGDTSFLYPNFVNEMSSVTPPQSVQGHTEGFVAGVTTPPAMPMNSSTMSNKGGSMNDNTSTSLSQATSSGIATSSGQPNDVEVRSNLFVCGLPVSVRDKELLELFEKHGEIESAKVMLDIHTGRIRGIAFVKFKNVEHAENAVDALNGTTVNGHQITVRVANSRAAYLPGNPTNKTFVRNVPLTVSRTTLFEYFAQFGEVTDLSIKSDTAQGRHNPSGRSASTTEDGADDKLNIVFITYSTKEAAAKAAEATHTKTPFKECNGVPLLAKVAEDTVRRMERLSRRQRPATGAEGTREVSTSSSSTNVASMSRFAAPSMGAALPTGMMMPPMMPMAGSFPPGTFVSVPTMGNTPDLTAPTMMPASVAGDHMTALRDASGNPIYSPAQPNPATATGGMAYAMPGNMAQPSIFFSAQPPPPAINQSPPQQSQQQPQAQPQTLYISTPNGFVPAPQQHQQQQQLPQPPPPQQQQPLQFFPAPPLLPQVPQQSQQTMPMPGAAPGQLVYMQTPNGSMMPVMYGGAQPATASMLPTQQMNPYFVMMGGQPPSNQ”, the “soluble on expression in E. coli” value was “soluble”. With “MKRILVVFLMLAIILAGCSNKGEKYQKDIDKVYKEQNQMNKIASKVQNTIKTDIKQEDSNTHVYKDGKVIVIGIQLYKDREKMYYFAYEIKDGKAEINREIDPIKYMKDHKADYEDENVEVEKDMAGDPLEHHHHHH” the “soluble on expression in E. coli” value was “not soluble”. With “MFRSSLTHLQAVSRVFIMGGHITPFVGKGSKLFIDKKHPDFGKKQNMTLEEILATTVQHTIENTGLNGKEDIVDQVVVGNFLGELFSSQGHLGPAAIGSLTYGQAGAKNPLMYKPAMRVEGACASGGLAVVSATNALKAGSADIALAVGVEVQTTATARVGGDYLARAADYQRQRKLDDFTFPCLFAKRMKYIAEHNHFTMEDTARVAAKAYANGNRNPLAHMHTRKLSFEQCNGEDPSNVKFLGNETYKEYLRMTDCSQVSDGGAGVVLANEEGLKKMGLSPNDSRLVEIKSIACAVSNLYEDPDDACCMFTSRQAAQKALSMANVKPSDLNVAEVHDCFTIAEMLMYEALGIAEYGHAKDLIRNGETTLEGRIPVNTGGGLLSFGHPVGATGIKQVMEVYRQMKGQCGAYQMKKIPALGATLNMGGDDKTAVSAVLQNI” the “soluble on expression in E. coli” value was “not soluble”. In the case of “MSEITLGKYLFERLKQVNVNTVFGLPGDFNLSLLDKIYEVEGMRWAGNANELNAAYAADGYARIKGMSCIITTFGVGELSALNGIAGSYAEHVGVLHVVGVPSISAQAKQLLLHHTLGNGDFTVFHRMSANISETTAMITDIATAPAEIDRCIRTTYVTQRPVYLGLPANLVDLNVPAKLLQTPIDMSLKPNDAESEKEVIDTILVLDKDAKNPVILADACCSRHDVKAETKKLIDLTQFPAFVTPMGKGSIDEQHPRYGGVYVGTLSKPEVKEAVESADLILSVGALLSDFNTGSFSYSYKTKNIVEFHSDHMKIRNATFPGVQMKFVLQKLLTTIADAAKGYKPVAVPARTPANAAVPASTPLKQEWMWNQLGNFLQEGDVVIAETGTSAFGINQTTFPNNTYGISQVLWGSIGFTTGATLGAAFAAEEIDPKKRVILFIGDGSLQLTVQEISTMIRWGLKPYLFVLNNDGYTIQKLIHGPKAQYNEIQGWDHLSLLPTFGAKDYETHRVATTGEWDKLTQDKSFNDNSKIRMIEVMLPVFDAPQNLVEQAKLTAATNAKQ”, the “soluble on expression in E. coli” value is reported as “soluble”. In the case of “MISIKVLFFGEACQLVGKREEAIDFPEETDYEEIRKTILENYPALQKIEKVMMLAVDQEYANPGDRFELVRFTEIAVIPPLSGG”, the “soluble on expression in E. coli” value is reported as “soluble”. With “MGSDKIHHHHHHMKKILFLFLAACFFFSCEKETIVIPQQHAGRTVLAFFWADNSLNSSLRDNIQTMMQGLQAMKDSAALLVYWDGEASDISWPEPCIVEYVTNGQGGINSLSKGTIDAMMADKNTSIYDLIGIGNIRKKYPPQTSTEKTVMQTVIGDMMSAYPSESYGIIFGSHGSGWLPTITGTRSIGQDGGRYSSDTALIPELAEVLRTVNPQKFDFVLFDACMMGCAEVYYELKDAARYCIASVLDIPAAGFPYASVMPYLYENAIKDYLEPICKDYIDYYNYIGWGTISAVDCNQMEGLAEAVRSVILSNQDSLKNVDTADLQQYGKGSSSFKGYAYDMLQFIGKLCGGMAPDDFTQQLKKTVIYTDYTHDPTSSLYRIDGDNYSGMGMYIPNSFTTPKYLLWNNYFKSSIAWYHASGWAETESIWGN” the “soluble on expression in E. coli” value was “not soluble”. In the case of “YMVPGLWGAPLKAVSAFAPPMKTQDFNLYTNEVHAKFDDYDLGMEYARQHNKPVMLDFTGYGCVNCRKMELAVWTDPKVSSIINNDYVLITLYVDNKTPLTEPVKIMENGTERTLRTVGDKWSYLQRVKFGANAQPFYVLIDNEGNPLNKSYAYDEDISKYINFLQTGLENYRKEK”, the “soluble on expression in E. coli” value is reported as “not soluble”. In the case of “MKRKVQVKNITIGEGRPKICVPIIGKNKKDIIKEAKELKDACLDIIEWRVDFFENVENIKEVKEVLYELRSYIHDIPLLFTFRSVVEGGEKLISRDYYTTLNKEISNTGLVDLIDVELFMGDEVIDEVVNFAHKKEVKVIISNHDFNKTPKKEEIVSRLCRMQELGADLPKIAVMPQNEKDVLVLLEATNEMFKIYADRPIITMSMSGMGVISRLCGEIFGSALTFGAAKSVSAPGQISFKELNSVLNLLHKSIN”, the “soluble on expression in E. coli” value is reported as “not soluble”. For “SELDAKLNKLGVDRIAISPYKQWTRGYMEPGNIGNGYVTGLKVDAGVRDKSDNNVLDGIVSYDRAETKNAYIGQINMTTAS”, the “soluble on expression in E. coli” value was “soluble”. For “MQDIRDLTAVLRSKTPIVVIETYEEYRVVDMLKRIANVLYQPLFTWSITQGLTRVDKPMPAQKFNTEPGDILGQIKATTQQGIYVLCDFHPFVVEAPKNVRLLKEIALEYDALQHTLVLVSHAFEIPPEIKRYCAYFQLTLPSTSQLENLIYLEVDKVRTQGIPLNVDDKAVVKLAENLRGVTLDDARRLIHKAIVDDGAITHSDVDLINKAKFQLLDLNGILQFEYDTSDFSQIAGLHNLKKWLKQRAPAAHSPQGVSAAAQIDTPKGVLLLGVQGSGKSLAAKAVAGVWQRPLLRLDMGALYNKYIGETEKNLRNALELADMMSPCILWIDEIEKGLSGSNSDQGISTRILGTLLTWMAERKSEVFVVATANDIQALPPELMRKGRMDEIFFVDLPDETIRKAIFLIHCQRRGIDVSRLDLAQLSRHSQGFSGAEIEQAVIAAMYSARSLGRTLDQDLLLEELTKTRPLSIVMGDKINALRQWAAGRTVNAHELEHHHHHH”, the “soluble on expression in E. coli” value was “soluble”. With “AVTFAVMVSDAPSLDESKLKTPYSSTIYDKNGKEIAEVGAEKRTYVSIDEIPDVVKEAFIATEDARFYEHHGIDPVRIGGALVANFKDGFGAEGGSTITQQVVKNSLLSHQKTLKRKVQEVWLSIQLERNYSKDEILEMYLNRIYFSPRAYGIGKAAEEFFGVTDLSKLTVEQAATLAGMPQSPTAYNPVKNPDKAEKRRNIVLSLMKKQGFISDSQYNKAKKVAVKDEGVVSQKEYEKASTNKYSAFVEEVMKEIDEKSDVDPSADGLKIYTTLDTKAQDKLDELMDGDTVGFTEGMQGGVTLLDTKNGEVRAIGAGRNQPVGGFNYATQTKAQPGSTIKPILDYGPVIENKKWSTYEQIDDSAYTYSNGKPIRDWDRKYLGPISMRYALAQSRNIPALKAFQAVGKDTAVDFANGLGLGLTKDNVTEAYSIGGFGGNDGVSPLTMAGAYSAFGNNGTYNEPHFVKSIEFNDGTKLDLTPKSKSAMSDYTAFMITDMLKTAVKTGTGQLAQVPGVEVAGKTGTTNFDDNEVKRYNIASGGARDSWFVGYTPQYTAAVWTGMGENEAGKKSLSAEEQKVAKRIFAQLIADVDDGSGSFEKPDSVVEATVEKGSNPAKLAGPNTPSDKKLTEYFVKGTAPSTVSKTYEKEEKEETAKLSGLNVKYDKDNQSLTLSWNYDGDATFAVKQSVDGGSYSEIQNSSAKEAVISGVQPGSVYKFEVTAVSDDGKSTASTSYEVPKAEDDEDKKDQQQTDDEKQDDEKTQDDTQTDDSQKDDGQTDQDQTDDSTNDQDKKQDNTNTNPSDNNNQDQSNDNDNDNSNNQDTSDGDSNSGKNDSTGSDTNKNKTDTSNKTQTNSSSIEKT” the “soluble on expression in E. coli” value was “not soluble”. With “MEESDVLISLIEILKIHQKVIDYDKFKDPEDYTPAIRSLATLELMFEYLIKESNTIFENAAVIVYTIVAKHPFFNGNKRTGYEAMNFIIEDGGYGFTSTDEEMIEFIIRVATTENEMSIEEIKEWIIRHTEKILLEHHHHHH” the “soluble on expression in E. coli” value was “soluble”. For “SLKNRRVGKKLLMTGGGRCNVTNNRPAEEIISFIPGNGKFLYSAFSQFDNYDIMNFFESNGIHLKEEDHGRMFPVTDKSKSIVDALFNRINELGVTVFTKTQVTKLLRKDDQIIGVETELEKIYAPCVVLTTGGRTYPSTGATGDGYKLAKKMGHTISPLYPTESPIISEEPFILDKTLQGLSLQDVNLTVLNQKGKPLVNHQMDMLFTHFGISGPAALRCSSFINQELTRNGNQPVTVALDVFPTKSFEEVPAKQLTEKQRLSFVELLKDFQFTVTKTLPLEKSFVTGGGISLKEVTPKTMESKLVNGLFFAGELLDINGYTGGYNVTAAFVTGHVAGSHAAEIAEYTYLPIEEV”, the “soluble on expression in E. coli” value was “soluble”. For “MNPASPFATLTDRIDWQKVDGLVPAIVQDFQSSQVLMMGYMNPEALQKTLDTQQVTFFSRSKQRLWTKGETSGHVLQLKNIALDCDQDTLLVKVNPIGPTCHTGTVTCWDGDAQEESQMVWLHQLEQLLAERKNADPSSSYTASLYARGTKRIAQKVGEEGVEVALAATAGDKEELICESADLMYHLLVLLQEQGLAMNDVINKLKERHK”, the “soluble on expression in E. coli” value was “not soluble”. With “GHMLWARLVGLARLEARALSKKERRSLLERLKPYYTRIPFSEKADLRLVKARTDSGEYEIITVDGVPCLFEWSDGRIYPTLQCLKAFGVDWLKGVVLVDKGAAIALAKGAHLMIPGVVGVEGSFTRGDVVAALYHETRTPVMVGVAEVDSSALEKLYREKARGRAVRRVHRLGDALWELAQEVGKRLSGS” the “soluble on expression in E. coli” value was “soluble”. In the case of “MKLVILLSFVATVAVFAAPSAPAGLEEKLRALQEQLYSLEKENGVDVKQKEQPAAADTFLGFVPQKRMVAWQPMKRSMINEDSRAPLLHAIEARLAEVLRAGERLGVNPEEVLADLRARNQFQ”, the “soluble on expression in E. coli” value is reported as “not soluble”. For “MNETEFYAYHIVTRKKMHIGQMIPFNKNQHNTLYHFFFEREQLNANGEDGIQILNNHYKNDELHINNENAKVVISYMDQTIRAARETIVEMVRLQEFPEYPSRLSCLYAAKSYEDALKWKALFDSYNREVLQIVKLRVIGSSFEGDGNLLPKEDGIPFSQKIEQARKYWKGNIRNELPELLINGEIEVVEIIDDFSSIHI”, the “soluble on expression in E. coli” value was “soluble”. With “MGGIGRIGILGSGSWATALAKIILTSQPSINWFMRREEQAQGIKRTGRNPNYLRDAVFDPRKISFFTDSDLNSFFRASDVVVLVTPSPFIKSYLKRVRSSSMRDKLIINAIKGIVPDENVLVSEYLHDFCDVPNELIGVVSGPCHAEEVARERRSYLTVGCFDINKAKAMANVLRNDYVSCTTSQDVVGIEYASVLKNVYAIAAGICNGLQYGDNFQSVLMSNAIAEMNSFVNTVHLLEREITDSVYLGDLLVTAYSNYSRNRTFGNMIGKGYSVKSAQMEMEMIAEGYYGAKCVREVNKRYQVNMPIMNTVYEVLYEKRDAAEAITALTAHFK” the “soluble on expression in E. coli” value was “not soluble”.
